The results in this text go back to patent US20220340636A1.

In experiment [1] the target is human insulin receptor (hIR) (human) (UniProt P06213). Put plainly: binding to hIR, assay not described at this place; reference human insulin.
In experiment [2] the target is human IR-B overexpressed on NIH 3T3 mouse fibroblast cells (human) (UniProt P06213). As to the kind of experiment: cell-based or functional assay.
Experiment [3] concerns the target human insulin receptor (hIR) (human) (UniProt P06213). As to the kind of experiment: cell-based or functional assay.
The target of experiment [4] is solubilised immuno-captured human IR (isoform B) (human) (UniProt P06213).
Experiment [5] shares this target. Put plainly: competition binding on human IR-B (FIG. 2); reference PTM-free sCon-Ins G1.

As for Con-Ins G1 (ligand), in experiment [1], the fold less affinity than human insulin worked out at 30 fold.
hIns[TyrB15, TyrB20, DOI] (ligand) had a fold more active than hIns[DOI], Akt phosphorylation assay in experiment [2] of 5 fold. In experiment [3], the fold increased potency in hIR activation (against DOI) worked out at 5 fold.
In experiment [3], “B10E, B20 biphenyl DOI analogue (ligand)” gave a fold higher potency than N10E, B20Y DOI of 3 fold; a fold increase of the potency of DOI of 100 fold; a percent of the potency of human insulin of 10%.
In experiment [4], sCon-Ins G1 (ligand) yielded a fold less active than hIns of 30 fold and a log [IC50 (nM)] of 1.24 log nM. Besides, the fold more active than the PTM-free analogue in experiment [5] was 4 fold.
Regarding “DOI analogue with B10 Glu and B20 Tyr (ligand)”, the fold increase in potency compared to B20 Tyr alone in experiment [3] is 5 fold.
B20 Tyr DOI analogue (ligand): the fold increased potency in hIR activation (against DOI) in experiment [3] turned out to be 5 fold.
